Experimental data as given in patent publication US7855167.

Assays:
[1] = target: WinZip-B1-DHFR[2:I114A] (murine) (UniProt P00375); test: cell-based or functional assay
[2] = target: WinZip-B2-DHFR[2:I114A] (murine) (UniProt P00375); test: cell-based or functional assay

Frequency of dominant Pair at P12 [1]: 82%
Selection factor (competition selection) [1]: 3.2e+06
frequency of the pair among sequenced colonies at P10 [1]: 33%
Frequency of dominant Pair at P12 [2]: 67%
Selection factor (competition selection) [2]: 87000
frequency of the pair among sequenced colonies at P10 (fraction (3/5)) [2]: 0.6
Substance: WinZip-A1-DHFR[1] (from UniProt P00375 1-107) (designed binder)
